Here are results for five molecules from US20230227538A1 (University of California, published 2023).

Several values for one entry are separate records, joined by “and”; a condition that tells them apart may be missing. Equal values may be shown once.

The target in experiment [1] is T1, SARS-CoV-2 Spike ectodomain, stabilized prefusion trimer (spike ECD, Spike^S2P) (SARS-CoV-2).
T1 construct: also called SC2 Spike ECD; Spike trimer
Briefly: SPR, Spike^S2P captured on a StreptactinXT chip. In general terms: In SPR one partner is held on a chip, and binding of the other changes the refractive index at the surface.

Experiment [2] has as its target T1, SARS-CoV-2 Spike ectodomain, stabilized ….
Experiment [3] has the same target. This is another data set of the same source.
Experiment [4] shares this target. Nature of the experiment: SPR on captured Spike^S2P.
The target in experiment [5] is Spike protein of live SARS-CoV-2 (isolate France/IDF0372/2020) (SARS-CoV-2, UniProt P0DTC2 14-1273). Briefly: cell-based or functional assay.
Experiment [6] addresses T1, SARS-CoV-2 Spike ectodomain, stabilized …. Nature of the experiment: SPR, slow phase of a biphasic dissociation from Spike^S2P.
For experiment [7] the target is unchanged. Nature of the experiment: SPR, fast phase of a biphasic dissociation from Spike^S2P.
Experiment [8] shares this target. Nature of the experiment: SPR, no measurable dissociation over ten minutes.
The target is the same in experiment [9]. Briefly: SPR.

B1: Nb6 (AeroNab6, NbCOV6, clone pNbCOV006A) (VHH)
VHH: QVQLVESGGGLVQAGGSLRLSCAASGIIFGRNAMGWYRQAPGKERELVAGITRRGSITYYADSVKGRFTISRDNAKNTVYLQMNSLKPEDTAVYYCAADPASPAPGDYWGQGTQVTVSS
notes: also called AeroNab6 MASC monomer; Parent clone (NbCOV6)
With B1, binding in experiment [1] was characterised by a dissociation constant (Kd) of 210 nM. For the same molecule, it took 370 nM to reach half-maximal inhibition in experiment [2] (IC50). Also, a half-maximal effect in [3] (EC50) was put at 359 nM. Besides, the koff (commonly the rate constant with which the complex falls apart) in experiment [4] is 0.056 s⁻¹.

B2: mNb6 (matured Nb6, mNbCOV6, AeroNab6m) (VHH)
VHH: QVQLVESGGGLVQAGGSLRLSCAASGYIFGRNAMGWYRQAPGKERELVAGITRRGSITYYADSVKGRFTISRDNAKNTVYLQMNSLKPEDTAVYYCAADPASPAYGDYWGQGTQVTVSS
B2: in [3], a half-maximal response (EC50) required 0.056 nM.

B3: Nb6-tri (trivalent Nb6 with two 20 amino acid linkers) (VHH)
chain: QVQLVESGGGLVQAGGSLRLSCAASGIIFGRNAMGWYRQAPGKERELVAGITRRGSITYYADSVKGRFTISRDNAKNTVYLQMNSLKPEDTAVYYCAADPASPAPGDYWGQGTQVTVSSGGGGSGGGGSGGGGSGGGGSQVQLVESGGGLVQAGGSLRLSCAASGIIFGRNAMGWYRQAPGKERELVAGITRRGSITYYADSVKGRFTISRDNAKNTVYLQMNSLKPEDTAVYYCAADPASPAPGDYWGQGTQVTVSSGGGGSGGGGSGGGGSGGGGSQVQLVESGGGLVQAGGSLRLSCAASGIIFGRNAMGWYRQAPGKERELVAGITRRGSITYYADSVKGRFTISRDNAKNTVYLQMNSLKPEDTAVYYCAADPASPAPGDYWGQGTQVTVSS
Turning to B3, the “IC50, plaque assay with live SARS-CoV-2 on VeroE6 cells” value in experiment [5] amounted to 0.16 nM. Also, the koff is below 1e-06 s⁻¹ in experiment [6] and 0.029 s⁻¹ in experiment [7]. For the same molecule, in experiment [4], the “fold gain in KD against Nb6” value was above 200000 fold.

B4: mNb6-tri (trivalent mNb6 with a 20 amino acid linker) (VHH)
chain: QVQLVESGGGLVQAGGSLRLSCAASGYIFGRNAMGWYRQAPGKERELVAGITRRGSITYYADSVKGRFTISRDNAKNTVYLQMNSLKPEDTAVYYCAADPASPAYGDYWGQGTQVTVSSGGGGSGGGGSGGGGSGGGGSQVQLVESGGGLVQAGGSLRLSCAASGYIFGRNAMGWYRQAPGKERELVAGITRRGSITYYADSVKGRFTISRDNAKNTVYLQMNSLKPEDTAVYYCAADPASPAYGDYWGQGTQVTVSSGGGGSGGGGSGGGGSGGGGSQVQLVESGGGLVQAGGSLRLSCAASGYIFGRNAMGWYRQAPGKERELVAGITRRGSITYYADSVKGRFTISRDNAKNTVYLQMNSLKPEDTAVYYCAADPASPAYGDYWGQGTQVTVSS
As to B4, the “IC50, live SARS-CoV-2 infection assay” value in experiment [5] was 54 pM and 2.3 ng/mL. The koff in [8] is below 1e-06 s⁻¹. In experiment [9], the Kd (usually the concentration at which binding is half-saturated) was below 0.001 nM and the “dissociation half-life t½” value was above 192 h.

B5: Nb6-bi (bivalent Nb6 with a 15 amino acid linker) (VHH)
chain: QVQLVESGGGLVQAGGSLRLSCAASGIIFGRNAMGWYRQAPGKERELVAGITRRGSITYYADSVKGRFTISRDNAKNTVYLQMNSLKPEDTAVYYCAADPASPAPGDYWGQGTQVTVSSGGGGSGGGGSGGGGSQVQLVESGGGLVQAGGSLRLSCAASGIIFGRNAMGWYRQAPGKERELVAGITRRGSITYYADSVKGRFTISRDNAKNTVYLQMNSLKPEDTAVYYCAADPASPAPGDYWGQGTQVTVSS
As to B5, the results for the dissociation rate constant (koff) in experiment [6] and in experiment [7] were 0.00031 s⁻¹ and 0.027 s⁻¹, respectively. Also, the “fold gain in KD against Nb6” value in experiment [4] came out at 750 fold.
